The source of these data is article PMC11832422 (Nature Structural & Molecular Biology, 2024).

Where “and” joins values, the source holds several entries; their conditions need not be identical. Identical values can stand only once.

This data set concerns the molecule itself. Kind of data set: cryo-EM structure.

B1: CXCR4EM (human CXCR4 with N119S, hemagglutinin signal peptide, C-terminal monomeric enhanced GFP and FLAG tag) (receptor)
chain: EGISIYTSDNYTEEMGSGDYDSMKEPCFREENANFNKIFLPTIYSIIFLTGIVGNGLVILVMGYQKKLRSMTDKYRLHLSVADLLFVITLPFWAVDAVANWYFGNFLCKAVHVIYTVSLYSSVLILAFISLDRYLAIVHATNSQRPRKLLAEKVVYVGVWIPALLLTIPDFIFANVSEADDRYICDRFYPNDLWVVVFQFQHIMVGLILPGIVILSCYCIIISKLSHSKGHQKRKALKTTVILILAFFACWLPYYIGISIDSFILLEIIKQGCEFENTVHKWISITEALAFFHCCLNPILYAFLGAKFKTSAQHALTSVSRGSSLKILSKGKRGGHSSVSTESESSSFHSS
One may read the stoichiometry N as the number of molecules, sites or subunits per partner or assembly. Regarding B1, the “stoichiometry N” value is 3 and 4.
